Reference: US20180362585A1 (Bicycle, published 2018)
Numbered stars: 1 amine (or outer) side, 2 acyl side, 3 side chain; on linkers, the order of the positions; unused ones are H or OH. Bridge positions count the residues as written; N and C are the ends. Ends that are not written are not given here. TBMB = c1c(C[*:1])cc(C[*:3])cc1C[*:2]

The binders below were run against T1, human plasma Kallikrein (human, UniProt P03952 20-638) (assay: phage binding assay).
T1 construct: also called hPK; human PK
T1 sequence (P03952 20-638 limits assumed): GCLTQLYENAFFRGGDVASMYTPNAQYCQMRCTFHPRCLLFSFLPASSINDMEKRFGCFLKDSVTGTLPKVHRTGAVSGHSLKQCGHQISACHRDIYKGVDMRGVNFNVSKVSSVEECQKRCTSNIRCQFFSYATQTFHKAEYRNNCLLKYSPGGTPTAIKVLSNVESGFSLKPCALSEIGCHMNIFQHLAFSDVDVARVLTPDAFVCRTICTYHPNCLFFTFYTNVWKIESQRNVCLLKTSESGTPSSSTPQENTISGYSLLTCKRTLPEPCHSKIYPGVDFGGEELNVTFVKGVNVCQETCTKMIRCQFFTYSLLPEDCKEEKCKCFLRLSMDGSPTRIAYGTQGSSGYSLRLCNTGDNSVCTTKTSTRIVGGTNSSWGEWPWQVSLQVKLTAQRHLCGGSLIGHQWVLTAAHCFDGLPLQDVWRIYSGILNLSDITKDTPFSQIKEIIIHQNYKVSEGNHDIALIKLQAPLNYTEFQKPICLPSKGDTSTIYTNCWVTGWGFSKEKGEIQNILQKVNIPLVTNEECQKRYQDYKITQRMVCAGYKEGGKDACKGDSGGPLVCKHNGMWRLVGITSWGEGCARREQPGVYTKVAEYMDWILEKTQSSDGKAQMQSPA

Row | Binder | BINDING ASSAY SIGNAL
1 | CSWPARCTHQDLC (linker 1-7-13 via TBMB, on phage) | 110

The binders below were run against T1, human plasma Kallikrein (assay: enzyme inhibition).
Protocol: Functional enzyme assays were conducted in 10 mM Tris HCl, 150 mM NaCl, 10 mM MgCl2, 1 mM CaCl₂) and 1 mg/mL BSA (all Sigma UK) pH7.4 at 25° C. in solid black 96 well plates. […] Release of AMC was measured using a Pherastar FS (BMG Labtech), excitation 360 nm, emission 460 nm. The rate of the linear phase of the reaction, typically 5 to 45 minutes, was calculated in MARS data analysis software (BMG labtech). The rate was then used to calculate the IC50 and Ki in Prism (GraphPad).

Row | Binder | Ki [nM]
2 | ACTYPYKCLHQNLCA (linker 2-8-14 via TBMB) [2A10] | 4.98
3 | ACAWPAKCLTRELCA (linker 2-8-14 via TBMB; not fully specified (N-terminus, C-terminus)) [1B1] | 8.1
4 | ACSWPARCNHQDLCA (linker 2-8-14 via TBMB; not fully specified (N-terminus, C-terminus)) [06-57] | 0.4
5 | ACGGYNNCRAFSYCA (linker 2-8-14 via TBMB; not fully specified (N-terminus, C-terminus)) [1F7] | 2.2
6 | ACADPWACLFRRPCA (linker 2-8-14 via TBMB; not fully specified (N-terminus, C-terminus)) [06-63 T] | 1280
7 | ACTWPARCTHQNWCA (linker 2-8-14 via TBMB; not fully specified (N-terminus, C-terminus)) [06-09] | 1.2
8 | ACTWPARCTMQNWCA (linker 2-8-14 via TBMB; not fully specified (N-terminus, C-terminus)) [06-A2*] | 181

Target: T1, human plasma Kallikrein
Assay: phage binding assay
Remark: another data set of the same source
Protocol: Library transformant colonies, or selection output colonies, were picked and grown as individual cultures in 2TY broth containing selective antibiotic. The picked colonies were DNA-sequenced using a QIAgen PyroMark Q96 DNA sequencer to reveal the amino-acid substitution present in each clone, and were assayed for human plasma Kallikrein binding as follows. The phage-containing supernatant was harvested from the culture and phage were cyclised with tris bromomethyl benzene (TBMB) based on the methods of Heinis et al (Nature Chemical Biology vol. 5 pp 502-507 (2009)). The purified phage from this process were assayed for binding to biotinylated human plasma Kallikrein using a homogeneous plate-based binding assay; assay read-out measured on a BMG Labtech Pherastar FS plate reader. The quantitative binding data from duplicate assay samples was averaged (mean) and expressed as signal:background. […] The assay data was correlated with the peptide sequences.
Selections against human plasma Kallikrein were performed at a variety of stringencies (see Phage selections' in Methods above). All output sequences were identified and analysed for target binding (see ‘Randomisation of peptide domains—Assay of binding of individual clones’ in Methods above). Table 17 lists each unique sequence, its relative abundance in the selection output (frequency), and a rank number according to target binding strength.

Row | Binder | RANK (Kallikrein binding)
9 | CSHRRWCTHQDLC (linker 1-7-13 via TBMB (inferred), on phage) | 41
10 | CSLFDHCTHQDLC (linker 1-7-13 via TBMB, on phage) | 40
11 | CSQVVGCTHQDLC (linker 1-7-13 via TBMB, on phage) | 38
12 | CSWPARCTHQDLC (linker 1-7-13 via TBMB, on phage) | 1
13 | CSIPFKCTHQDLC (linker 1-7-13 via TBMB (inferred), on phage) | 32
14 | CSLPIRCTHQDLC (linker 1-7-13 via TBMB, on phage) | 30
15 | CSWPYRCTHQDLC (linker 1-7-13 via TBMB, on phage) | 10
16 | CSFPYRCTHQDLC (linker 1-7-13 via TBMB (inferred), on phage) | 5
17 | CSWLARCTHQDLC (linker 1-7-13 via TBMB, on phage) | 4
18 | CSHPYRCTHQDLC (linker 1-7-13 via TBMB (inferred), on phage) | 8
19 | CSFPWRCTHQDLC (linker 1-7-13 via TBMB (inferred), on phage) | 23
20 | CSYPWRCTHQDLC (linker 1-7-13 via TBMB, on phage) | 33
21 | CSYPFRCTHQDLC (linker 1-7-13 via TBMB, on phage) | 21
22 | CSFPYKCTHQDLC (linker 1-7-13 via TBMB (inferred), on phage) | 22
23 | CSWPSRCTHQDLC (linker 1-7-13 via TBMB, on phage) | 2
24 | CSFPIRCTHQDLC (linker 1-7-13 via TBMB (inferred), on phage) | 15
25 | CSWWARCTHQDLC (linker 1-7-13 via TBMB, on phage) | 27
26 | CSWSARCTHQDLC (linker 1-7-13 via TBMB, on phage) | 19
27 | CSWPFRCTHQDLC (linker 1-7-13 via TBMB, on phage) | 14
28 | CSWAARCTHQDLC (linker 1-7-13 via TBMB, on phage) | 7
29 | CSWQARCTHQDLC (linker 1-7-13 via TBMB, on phage) | 42
30 | CSWPYKCTHQDLC (linker 1-7-13 via TBMB, on phage) | 28
31 | CSYPYRCTHQDLC (linker 1-7-13 via TBMB, on phage) | 26
32 | CSWSYRCTHQDLC (linker 1-7-13 via TBMB, on phage) | 36
33 | CSMPYRCTHQDLC (linker 1-7-13 via TBMB, on phage) | 31
34 | CSHPFRCTHQDLC (linker 1-7-13 via TBMB (inferred), on phage) | 9
35 | CSYPIRCTHQDLC (linker 1-7-13 via TBMB, on phage) | 18
36 | CSWHARCTHQDLC (linker 1-7-13 via TBMB, on phage) | 24
37 | CSFSYKCTHQDLC (linker 1-7-13 via TBMB (inferred), on phage) | 35
